Test results published in PMC13012646.

Molecular target: human kallikrein 7 variant hK7-2.7 (human) (UniProt P49862)
Chain of UniProt P49862 (P49862 30-253 Q52R/N119S/K129G/V157G/L189Q/Q228R/G233V): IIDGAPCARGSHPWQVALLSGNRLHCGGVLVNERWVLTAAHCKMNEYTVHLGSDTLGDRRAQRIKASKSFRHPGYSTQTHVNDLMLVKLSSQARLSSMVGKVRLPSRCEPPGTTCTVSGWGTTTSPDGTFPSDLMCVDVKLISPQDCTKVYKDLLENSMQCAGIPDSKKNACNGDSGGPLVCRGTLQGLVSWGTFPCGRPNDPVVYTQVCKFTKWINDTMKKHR

inhibition of Aβ8 FRET reporter cleavage (5 nM protease, 200 nM substrate, 37°C): > 130 nM
Substance: lympho-epithelial Kazal-type related inhibitor (LEKTI) fragment consisting of domains 10–15 (domain or fragment)
